{
  "source": "the supplement of paper PMC9112550",
  "about": "“Optimization of the antimicrobial peptide Bac7 by deep mutational scanning” (BMC Biology, 2022);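 further: peptides expressed intracellularly from a pBAD plasmid library in pooled LB shake-flask culture, induced with 0.3% L-arabinose, DNA abundance read by NGS, three biological replicates, DESeq2 with apeglm shrinkage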",
  "data": [
    {"system": "Escherichia coli TOP10", "experiment": "shrunken log2 fold change of peptide-encoding DNA abundance (4.5 h post-induction vs induction); higher = less antimicrobial activity (less host growth inhibition)", "conditions": "time post-induction: 4.5 h; library: site-saturation at positions 5, 18, 19, 20", "values": [
      {"sequence": "RRIRGRPPRLPRPRPRPRLHPRP", "shrunken log2 fold change": 0.653},
      {"sequence": "RRIRGRPPRLPRPRPRPRNRPRP", "shrunken log2 fold change": 0.637},
      {"sequence": "RRIRGRPPRLPRPRPRPRNYPRP", "shrunken log2 fold change": 0.00522},
      {"sequence": "RRIRGRPPRLPRPRPRPRPCPRP", "shrunken log2 fold change": 0.676},
      {"sequence": "RRIRGRPPRLPRPRPRPRPPPRP", "shrunken log2 fold change": 1.19},
      {"sequence": "RRIRGRPPRLPRPRPRPRRHPRP", "shrunken log2 fold change": 0.612},
      {"sequence": "RRIRGRPPRLPRPRPRPRRPPRP", "shrunken log2 fold change": 0.756},
      {"sequence": "RRIRGRPPRLPRPRPRPRSNPRP", "shrunken log2 fold change": 0.363},
      {"sequence": "RRIRGRPPRLPRPRPRPRTGPRP", "shrunken log2 fold change": 0.617},
      {"sequence": "RRIRGRPPRLPRPRPRPRYEPRP", "shrunken log2 fold change": 0.409},
      {"sequence": "RRIRGRPPRLPRPRPRPRYQPRP", "shrunken log2 fold change": 0.615},
      {"sequence": "RRIRGRPPRLPRPRPRPSAFPRP", "shrunken log2 fold change": 1.1},
      {"sequence": "RRIRGRPPRLPRPRPRPSAKPRP", "shrunken log2 fold change": 1.12},
      {"sequence": "RRIRGRPPRLPRPRPRPSDLPRP", "shrunken log2 fold change": 0.0731},
      {"sequence": "RRIRGRPPRLPRPRPRPSDMPRP", "shrunken log2 fold change": 0.488},
      {"sequence": "RRIRGRPPRLPRPRPRPSDRPRP", "shrunken log2 fold change": 0.137},
      {"sequence": "RRIRGRPPRLPRPRPRPSEFPRP", "shrunken log2 fold change": 0.122},
      {"sequence": "RRIRGRPPRLPRPRPRPSFTPRP", "shrunken log2 fold change": 0.079},
      {"sequence": "RRIRGRPPRLPRPRPRPSGAPRP", "shrunken log2 fold change": 0.688},
      {"sequence": "RRIRGRPPRLPRPRPRPSGNPRP", "shrunken log2 fold change": 0.18},
      {"sequence": "RRIRGRPPRLPRPRPRPSGQPRP", "shrunken log2 fold change": 0.538},
      {"sequence": "RRIRGRPPRLPRPRPRPSHLPRP", "shrunken log2 fold change": -0.158},
      {"sequence": "RRIRGRPPRLPRPRPRPSKLPRP", "shrunken log2 fold change": 0.0492},
      {"sequence": "RRIRGRPPRLPRPRPRPSKTPRP", "shrunken log2 fold change": 0.558},
      {"sequence": "RRIRGRPPRLPRPRPRPSLIPRP", "shrunken log2 fold change": 0.211},
      {"sequence": "RRIRGRPPRLPRPRPRPSMPPRP", "shrunken log2 fold change": 0.0931},
      {"sequence": "RRIRGRPPRLPRPRPRPSMQPRP", "shrunken log2 fold change": 0.599},
      {"sequence": "RRIRGRPPRLPRPRPRPSPFPRP", "shrunken log2 fold change": 0.168},
      {"sequence": "RRIRGRPPRLPRPRPRPSQIPRP", "shrunken log2 fold change": -0.111},
      {"sequence": "RRIRGRPPRLPRPRPRPSQQPRP", "shrunken log2 fold change": -0.147},
      {"sequence": "RRIRGRPPRLPRPRPRPSSGPRP", "shrunken log2 fold change": 0.0321},
      {"sequence": "RRIRGRPPRLPRPRPRPSSMPRP", "shrunken log2 fold change": -0.0636},
      {"sequence": "RRIRGRPPRLPRPRPRPSTGPRP", "shrunken log2 fold change": -0.0729},
      {"sequence": "RRIRGRPPRLPRPRPRPSVVPRP", "shrunken log2 fold change": 0.658},
      {"sequence": "RRIRGRPPRLPRPRPRPSVWPRP", "shrunken log2 fold change": 0.622},
      {"sequence": "RRIRGRPPRLPRPRPRPSWAPRP", "shrunken log2 fold change": 0.532},
      {"sequence": "RRIRGRPPRLPRPRPRPSWQPRP", "shrunken log2 fold change": 0.109},
      {"sequence": "RRIRGRPPRLPRPRPRPTCAPRP", "shrunken log2 fold change": 1.11},
      {"sequence": "RRIRGRPPRLPRPRPRPTCEPRP", "shrunken log2 fold change": 1.1},
      {"sequence": "RRIRGRPPRLPRPRPRPTCHPRP", "shrunken log2 fold change": 0.893},
      {"sequence": "RRIRGRPPRLPRPRPRPTCKPRP", "shrunken log2 fold change": 0.57},
      {"sequence": "RRIRGRPPRLPRPRPRPTDMPRP", "shrunken log2 fold change": 1.1},
      {"sequence": "RRIRGRPPRLPRPRPRPTDWPRP", "shrunken log2 fold change": 0.8},
      {"sequence": "RRIRGRPPRLPRPRPRPTEAPRP", "shrunken log2 fold change": -0.0279},
      {"sequence": "RRIRGRPPRLPRPRPRPTEDPRP", "shrunken log2 fold change": 1.2},
      {"sequence": "RRIRGRPPRLPRPRPRPTGYPRP", "shrunken log2 fold change": 0.559},
      {"sequence": "RRIRGRPPRLPRPRPRPTHNPRP", "shrunken log2 fold change": 0.443},
      {"sequence": "RRIRGRPPRLPRPRPRPTILPRP", "shrunken log2 fold change": 0.131},
      {"sequence": "RRIRGRPPRLPRPRPRPTIWPRP", "shrunken log2 fold change": 0.872},
      {"sequence": "RRIRGRPPRLPRPRPRPTKDPRP", "shrunken log2 fold change": 0.7},
      {"sequence": "RRIRGRPPRLPRPRPRPTLCPRP", "shrunken log2 fold change": 0.443},
      {"sequence": "RRIRGRPPRLPRPRPRPTLFPRP", "shrunken log2 fold change": 0.824},
      {"sequence": "RRIRGRPPRLPRPRPRPTMCPRP", "shrunken log2 fold change": 0.805},
      {"sequence": "RRIRGRPPRLPRPRPRPTNHPRP", "shrunken log2 fold change": 0.169},
      {"sequence": "RRIRGRPPRLPRPRPRPTPNPRP", "shrunken log2 fold change": 0.957},
      {"sequence": "RRIRGRPPRLPRPRPRPTRNPRP", "shrunken log2 fold change": 1.61},
      {"sequence": "RRIRGRPPRLPRPRPRPTSCPRP", "shrunken log2 fold change": 0.401},
      {"sequence": "RRIRGRPPRLPRPRPRPTSGPRP", "shrunken log2 fold change": 0.917},
      {"sequence": "RRIRGRPPRLPRPRPRPTSMPRP", "shrunken log2 fold change": 0.643},
      {"sequence": "RRIRGRPPRLPRPRPRPTTGPRP", "shrunken log2 fold change": 0.418},
      {"sequence": "RRIRGRPPRLPRPRPRPTTKPRP", "shrunken log2 fold change": 1},
      {"sequence": "RRIRGRPPRLPRPRPRPTTPPRP", "shrunken log2 fold change": 0.681},
      {"sequence": "RRIRGRPPRLPRPRPRPTTVPRP", "shrunken log2 fold change": 0.368},
      {"sequence": "RRIRGRPPRLPRPRPRPTWDPRP", "shrunken log2 fold change": 1.01},
      {"sequence": "RRIRGRPPRLPRPRPRPTWPPRP", "shrunken log2 fold change": 0.52},
      {"sequence": "RRIRGRPPRLPRPRPRPVCWPRP", "shrunken log2 fold change": 1.16},
      {"sequence": "RRIRGRPPRLPRPRPRPVDDPRP", "shrunken log2 fold change": 0.882},
      {"sequence": "RRIRGRPPRLPRPRPRPVDIPRP", "shrunken log2 fold change": 0.183},
      {"sequence": "RRIRGRPPRLPRPRPRPVEEPRP", "shrunken log2 fold change": 0.843},
      {"sequence": "RRIRGRPPRLPRPRPRPVEFPRP", "shrunken log2 fold change": 0.596},
      {"sequence": "RRIRGRPPRLPRPRPRPVENPRP", "shrunken log2 fold change": 0.757},
      {"sequence": "RRIRGRPPRLPRPRPRPVERPRP", "shrunken log2 fold change": 0.5},
      {"sequence": "RRIRGRPPRLPRPRPRPVGRPRP", "shrunken log2 fold change": 0.842},
      {"sequence": "RRIRGRPPRLPRPRPRPVGYPRP", "shrunken log2 fold change": 0.295},
      {"sequence": "RRIRGRPPRLPRPRPRPVHDPRP", "shrunken log2 fold change": -0.0619}
    ]}
  ]
}
